The values below come from paper PMC6825352, “Ghd8 controls rice photoperiod sensitivity by forming a complex that interacts with Ghd7”.

Data set [1] deals with HD1 (MBP-HD1);GHD8 (His-GHD8, NF-YB) (Oryza sativa (rice);Oryza sativa (rice), UniProt Q9FDX8;Q0J7P4 1-395;1-297, |). In words: EMSA; 5 mM Tris pH 7.5, 25 mM KCl, 0.5 mM DTT, 5 mM MgCl2, 2.5% glycerol, 0.05% NP-40, 50 ng/uL poly(dI-dC), room temperature 20 min, 5% polyacrylamide gel. Conditions: protein: recombinant;recombinant; tags: MBP (pMAL-c2X; text says MBP 'at the down-stream');N-terminal thioredoxin-His (pET-32); copies: 1;1; label: 3'-biotin; blunt.
Sequence of HD1 (MBP-HD1);GHD8 (His-GHD8, NF-YB) (Q9FDX8 whole entry, chain 1 of 2): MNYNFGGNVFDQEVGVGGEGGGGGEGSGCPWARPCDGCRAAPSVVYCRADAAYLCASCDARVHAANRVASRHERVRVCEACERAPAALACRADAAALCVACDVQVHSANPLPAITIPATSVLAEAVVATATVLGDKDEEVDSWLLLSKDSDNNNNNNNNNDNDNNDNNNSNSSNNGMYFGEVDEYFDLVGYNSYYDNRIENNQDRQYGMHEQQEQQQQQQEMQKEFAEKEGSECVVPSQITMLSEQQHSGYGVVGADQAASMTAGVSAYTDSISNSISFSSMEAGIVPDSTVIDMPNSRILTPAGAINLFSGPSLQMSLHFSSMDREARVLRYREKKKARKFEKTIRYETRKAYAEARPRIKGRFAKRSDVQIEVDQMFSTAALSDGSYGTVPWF
Sequence of HD1 (MBP-HD1);GHD8 (His-GHD8, NF-YB) (Q0J7P4 whole entry, chain 2 of 2): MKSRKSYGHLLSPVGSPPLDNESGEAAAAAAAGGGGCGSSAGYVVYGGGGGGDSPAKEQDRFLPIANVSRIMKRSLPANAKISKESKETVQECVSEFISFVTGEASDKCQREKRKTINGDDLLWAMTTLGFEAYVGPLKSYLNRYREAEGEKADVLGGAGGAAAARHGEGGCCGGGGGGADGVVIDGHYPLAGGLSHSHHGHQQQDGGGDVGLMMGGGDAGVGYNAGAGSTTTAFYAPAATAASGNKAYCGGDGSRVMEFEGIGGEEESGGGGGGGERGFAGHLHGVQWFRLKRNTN

The target in data set [2] is HD1 (MBP-HD1);GHD8 (His-GHD8, NF-YB);OsHAP5b (His-HAP5b, NF-YC) (Oryza sativa (rice);Oryza sativa …, UniProt Q9FDX8;Q0J7P4;Q655V5 1-395;1-297;1-250, ||). In words: EMSA; considerably stronger signal than HD1 alone; 50x/100x unlabeled F1 competitor; 5 mM Tris pH 7.5, 25 mM KCl, 0.5 mM DTT, 5 mM MgCl2, 2.5% glycerol, 0.05% NP-40, 50 ng/uL poly(dI-dC), room temperature 20 min, 5% polyacrylamide gel. To be noted: protein: recombinant;recombinant;recombinant; tags: MBP (pMAL-c2X); copies: 1;1;1; label: 3'-biotin; blunt.
Sequence of HD1 (MBP-HD1);GHD8 (His-GHD8, NF-YB);OsHAP5b (His-HAP5b, NF-YC) (Q9FDX8 whole entry, chain 1 of 3): as the sequence (Q9FDX8 whole entry, chain 1 of 2) above
Sequence of HD1 (MBP-HD1);GHD8 (His-GHD8, NF-YB);OsHAP5b (His-HAP5b, NF-YC) (Q0J7P4 whole entry, chain 2 of 3): as the sequence (Q0J7P4 whole entry, chain 2 of 2) above
Sequence of HD1 (MBP-HD1);GHD8 (His-GHD8, NF-YB);OsHAP5b (His-HAP5b, NF-YC) (Q655V5 whole entry, chain 3 of 3): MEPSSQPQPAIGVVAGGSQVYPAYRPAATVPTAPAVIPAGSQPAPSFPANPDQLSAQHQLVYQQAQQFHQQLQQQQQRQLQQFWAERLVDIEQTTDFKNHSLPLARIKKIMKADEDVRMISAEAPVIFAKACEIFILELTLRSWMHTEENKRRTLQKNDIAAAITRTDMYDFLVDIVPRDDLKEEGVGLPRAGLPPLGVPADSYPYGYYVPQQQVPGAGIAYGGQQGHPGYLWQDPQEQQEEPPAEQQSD

B1: F1 (dsDNA)
DNA 1: ATCTGGTTGCAATGGGGATGGCCAATGAGGAGTCG
DNA 2: CGACTCCTCATTGGCCATCCCCATTGCAACCAGAT
In the case of B1, the binding result in data set [1] and in data set [2] was “binds” throughout.
